By Kd is commonly meant a measure of binding affinity in units of concentration.

The target of data set [1] is T1, CBC (Homo sapiens, UniProt P52298).
T1 sequence (P52298 1-156): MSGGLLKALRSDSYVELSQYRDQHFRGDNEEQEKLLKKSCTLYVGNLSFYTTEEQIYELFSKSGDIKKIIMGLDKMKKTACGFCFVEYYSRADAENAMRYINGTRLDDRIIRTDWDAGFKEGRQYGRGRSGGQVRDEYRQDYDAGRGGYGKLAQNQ
T1 sequence (Q09161 20-790 partner): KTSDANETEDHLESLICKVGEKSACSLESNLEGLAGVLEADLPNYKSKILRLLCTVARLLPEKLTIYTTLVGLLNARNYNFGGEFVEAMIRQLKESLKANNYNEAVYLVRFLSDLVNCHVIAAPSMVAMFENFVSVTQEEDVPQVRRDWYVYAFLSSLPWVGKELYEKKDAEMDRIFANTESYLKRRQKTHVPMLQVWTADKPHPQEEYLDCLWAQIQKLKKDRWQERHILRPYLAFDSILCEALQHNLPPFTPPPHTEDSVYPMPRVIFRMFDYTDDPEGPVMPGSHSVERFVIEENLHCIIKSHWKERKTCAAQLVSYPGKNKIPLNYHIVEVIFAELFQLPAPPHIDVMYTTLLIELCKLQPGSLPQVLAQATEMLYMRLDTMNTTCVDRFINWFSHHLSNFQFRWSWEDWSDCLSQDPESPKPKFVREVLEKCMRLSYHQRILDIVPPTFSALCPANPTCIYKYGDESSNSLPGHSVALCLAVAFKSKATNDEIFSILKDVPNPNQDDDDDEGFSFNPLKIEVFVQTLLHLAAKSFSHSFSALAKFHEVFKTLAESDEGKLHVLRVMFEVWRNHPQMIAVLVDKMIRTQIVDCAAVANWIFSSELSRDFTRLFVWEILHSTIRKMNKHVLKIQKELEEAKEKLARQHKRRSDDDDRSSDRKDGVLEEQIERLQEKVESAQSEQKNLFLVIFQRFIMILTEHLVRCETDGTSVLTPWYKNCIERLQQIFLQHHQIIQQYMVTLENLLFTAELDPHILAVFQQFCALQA
Nature of the data set: Size exclusion chromatography (gel filtration) co-elution with CBC, with m^7GTP. The class given is binding. The settings on record: gel filtration with 500 µM m^7GTP, fractions analysed by SDS-PAGE. The protocol: Fig. 1 The interaction of CBC with ARS2 is enhanced in the presence of m^7GTP. a Schematic diagram of the domain structure of ARS2 based on ref. [26]. b Gel filtration chromatogram and Coomassie-stained SDS-PAGE of CBC-ARS2 in the presence and absence of m^7GTP. Purified recombinant CBC and ARS2^147–871 were mixed with (orange) or without (blue) 500 µM m^7GTP and subjected to gel filtration. Their elution profiles were overlaid (left) and single fractions analysed by SDS-PAGE (middle and right). Purified recombinant CBC and C-terminally truncated ARS2^147–845 were mixed with 500 µM m^7GTP and analysed in a similar way (bottom left). c ITC data and curve fit to derive the affinity of different ARS2 constructs for CBC. CBC or m^7GTP-CBC in the sample cell was titrated by ARS2. […] K D values and standard deviation represent the average from at least two independent experiments. d Sequence alignment of the C-terminus of ARS2. Conserved residues are highlighted in red. Figure made with ESPript[54]
Fig. 2 The interaction of CBC with NELF-E is enhanced in the presence of m^7GTP. a Schematic diagram of the domain structure of NELF-E. b Gel filtration chromatogram and Coomassie-stained SDS-PAGE of CBC-NELF-E in the presence and absence of m^7GTP. Purified recombinant CBC and NELF-E were mixed with (orange) or without (green) 500 µM m^7GTP and subjected to gel filtration. Their elution profiles were overlaid (left) and single fractions analysed by SDS-PAGE (middle and right). Purified recombinant CBC and NELF-E^244–360 were mixed together with 500 µM m^7GTP and similarly analysed (bottom left). c ITC data and curve fit to derive the affinity of different NELF-E constructs for CBC. CBC or m^7GTP-CBC in the sample cell was titrated by NELF-E^244–380 or NELF-E^360–380. The data were presented as described in the caption to Fig. 1c. d Sequence alignment of the C-terminus of NELF-E. Conserved residues are highlighted in red. Figure made with ESPript[54]
A general note: Size exclusion chromatography separates by hydrodynamic size, large species first.

Data set [2] deals with T1, CBC. Nature of the data set: ITC, binding to CBC without cap analogue. The settings on record: ITC (MicroCal ITC200), 25 °C, 20 mM HEPES, 120 mM NaCl, 2 mM TCEP, pH 7.8, single-site fit; no cap analogue pre-bound; mean ± SD of at least two independent experiments; SD. The text has this: (§1) hARS2 isoform-4 (871 residues, UniProt:Q9BXP5-4, also known as isoform-e, NP_001122326) constructs (residues 147–871, 147–845, 763–871, 763–845, 827–871) hNELF-E (NM_002904.5) (244–380, 244–360) and hPHAX (NM_032177.3) (1–394, 103–294, 103–308, 103–327) were cloned into pETM11 (EMBL). Full-length hNELF-E (1–380) was cloned into pFASTBac and CBP20 into pETM30. Primers used are given in Supplementary Table 2. All constructs were expressed in E. coli Rosetta 2 (Novagen), except full-length NELF-E and CBP80ΔNLS (CBP80 with residues 1–19 deleted[2]), which were expressed in High Five insect cells (Life Technology). Cells were harvested and lysed by sonication in lysis buffer containing 50 mM HEPES, pH 7.8, 300 mM NaCl, 10% (v/v) glycerol, 5 mM β-mercaptoethanol. Lysates were clarified by centrifugation and applied on an equilibrated Ni-sepharose column (GE Healthcare), washed with 20 mM imidazole in lysis buffer, and eluted with 300 mM imidazole in lysis buffer. While dialysing into 20 mM HEPES, pH 7.8, 120 mM NaCl, 10% (v/v) glycerol, 5 mM β-mercaptoethanol, the N-terminal 6-histidine-tag was cleaved with His-tagged Tobacco Etch Virus (TEV) protease overnight in a ratio 1:100 mg TEV per mg protein. The cleaved protein was further purified first on Ni-sepharose to remove TEV and then using an anion exchange column (HiTrap Q, GE Healthcare) followed if necessary by a Heparin column (GE Healthcare). In both cases a NaCl gradient from 50 to 800 mM in 20 mM HEPES 7.8, 0.5 mM tris(2-carboxyethyl)phosphine was used. To reconstitute the CBC heterodimer, cleared His-tagged CBP20 lysate was first immobilised on a Ni-sepharose column. After washing the column with lysis buffer, the cleared CBP80 lysate was applied to the column and further purification steps performed as described above. To remove the access of CBP20 the flow through of the Ni-column after TEV cleavage was loaded on an anion exchange column (HiTrap Q, GE Healthcare) and CBC eluted by a NaCl gradient as described above. In the text we refer to CBP80ΔNLS and CBP80ΔNLS-CBP20 as CBP80 and CBC, respectively. ARS2^845–871, NELF-E^354–380, and NELF-E^360–380 peptides, with or without FAM label at the N-terminus, were purchased from GenScript.
For orientation: In ITC the heat of successive injections is recorded.

For a further data set, the target named is T2, m^7GTP-CBC (Homo sapiens, UniProt P52298+Q09161).
T2 construct: 6-histidine tag (pETM30 vector) (N, cleaved yes); made in house; host or cells: CBP20 in E. coli Rosetta 2; CBP80ΔNLS in High Five insect cells; heterodimer reconstituted on Ni-sepharose
T2 sequence (Q09161 20-790): T1 sequence (Q09161 20-790 partner)
T2 sequence (P52298 1-156): T1 sequence (P52298 1-156)
In words: ITC, binding to CBC in the presence of the cap analogue m^7GTP. As to conditions: ITC, 25 °C, 20 mM HEPES, 120 mM NaCl, 2 mM TCEP, pH 7.8, CBC bound to m^7GTP, mean ± SD of at least two independent experiments.
From the text: as §1

B1: NELF-E 244–360: NELF-E fragment that lacks the last 20 residues (protein, UniProt P18615 244-360, looked up, fragment)
chain: GPFRRSDSFPERRAPRKGNTLYVYGEDMTPTLLRGAFSPFGNIIDLSMDPPRNCAFVTYEKMESADQAVAELNGTQVESVQLKVNIARKQPMLDAATGKSVWGSLAVQNSPKGCHRD
On to B1, for which, in the data set with CBC [1], the “Interaction with CBC by SEC in the presence of m^7GTP” value is given as “no stable complex is observed by SEC”.

B2: PHAX 103–308: human PHAX residues 103–308 (protein, UniProt Q9H814 103-308, looked up, fragment)
chain: SQKPPVAGGKKINNIWGAVLQEQNQDAVATELGILGMEGTIDRSRQSETYNYLLAKKLRKESQEHTKDLDKELDEYMHGGKKMGSKEEENGQGHLKRKRPVKDRLGNRPEMNYKGRYEITAEDSQEKVADEISFRLQEPKKDLIARVVRIIGNKKAIELLMETAEVEQNGGLFIMNGSRRRTPGGVFLNLLKNTPSISEEQIKDIF
The molecule B2 yielded a Kd in the data set with CBC [2] of 600 ± 140 nM.

B3: PHAX 103–294: human PHAX residues 103–294, minimal CBC binding region (protein, UniProt Q9H814 103-294, looked up, fragment)
chain: SQKPPVAGGKKINNIWGAVLQEQNQDAVATELGILGMEGTIDRSRQSETYNYLLAKKLRKESQEHTKDLDKELDEYMHGGKKMGSKEEENGQGHLKRKRPVKDRLGNRPEMNYKGRYEITAEDSQEKVADEISFRLQEPKKDLIARVVRIIGNKKAIELLMETAEVEQNGGLFIMNGSRRRTPGGVFLNLLK
In the case of B3, the Kd in the data set with CBC [2] amounted to 850 ± 210 nM.

B4: ARS2^147–845: C-terminally truncated ARS2, residues 147–845 (protein, UniProt Q9BXP5 147-845, looked up, fragment)
chain: PVMKTFKEFLLSLDDSVDETEAVKRYNDYKLDFRRQQMQDFFLAHKDEEWFRSKYHPDEVGKRRQEARGALQNRLRVFLSLMETGWFDNLLLDIDKADAIVKMLDAAVIKMEGGTENDLRILEQEEEEEQAGKPGEPSKKEEGRAGAGLGDGERKTNDKDEKKEDGKQAENDSSNDDKTKKSEGDGDKEEKKEDSEKEAKKSSKKRNRKHSGDDSFDEGSVSESESESESGQAEEEKEEAEEALKEKEKPKEEEWEKPKDAAGLECKPRPLHKTCSLFMRNIAPNISRAEIISLCKRYPGFMRVALSEPQPERRFFRRGWVTFDRSVNIKEICWNLQNIRLRECELSPGVNRDLTRRVRNINGITQHKQIVRNDIKLAAKLIHTLDDRTQLWASEPGTPPLPTSLPSQNPILKNITDYLIEEVSAEEEELLGSSGGAPPEEPPKEGNPAEINVERDEKLIKVLDKLLLYLRIVHSLDYYNTCEYPNEDEMPNRCGIIHVRGPMPPNRISHGEVLEWQKTFEEKLTPLLSVRESLSEEEAQKMGRKDPEQEVEKFVTSNTQELGKDKWLCPLSGKKFKGPEFVRKHIFNKHAEKIEEVKKEVAFFNNFLTDAKRPALPEIKPAQPPGPAQILPPGLTPGLPYPHQTPQGLMPYGQPRPPILGYGAGAVRPAVPTGGPPYPHAPYGAGRGNYDAFRGQGGY
Take B4: the “Interaction with CBC by SEC in the presence of m^7GTP” value with CBC [1] is “failed to bind”.

B5: ARS2 763–871: human ARS2 isoform 4 residues 763–871, E. coli expressed (protein, UniProt Q9BXP5 763-871, looked up, fragment)
chain: PEIKPAQPPGPAQILPPGLTPGLPYPHQTPQGLMPYGQPRPPILGYGAGAVRPAVPTGGPPYPHAPYGAGRGNYDAFRGQGGYPGKPRNRMVRGDPRAIVEYRDLDAPD
modifications: isoform 4
notes: human ARS2 isoform 4 residues 763–871, E. coli expressed
Consider B5, for which the Kd with m^7GTP-CBC (SD) worked out at 1000 ± 300 nM.

B6: ARS2 763–845: human ARS2 isoform 4 residues 763–845, lacks the C-terminal 27 amino acids (protein, UniProt Q9BXP5 763-845, looked up, fragment)
chain: PEIKPAQPPGPAQILPPGLTPGLPYPHQTPQGLMPYGQPRPPILGYGAGAVRPAVPTGGPPYPHAPYGAGRGNYDAFRGQGGY
modifications: isoform 4
notes: human ARS2 isoform 4 residues 763–845, lacks the C-terminal 27 amino acids
As to B6, the “K D” value with m^7GTP-CBC was “failed to bind”.

Source of the values: article PMC5670239, “Structural basis for mutually exclusive co-transcriptional nuclear cap-binding complexes with either NELF-E or ARS2” (Nature Communications, 2017).
